# Numbered stars: 1 amine (or outer) side, 2 acyl side, 3 side chain; on linkers, the order of the positions; unused ones are H or OH. Bridge positions count the residues as written; N and C are the ends. Side chains are listed from the residue outwards. Ends that are not written are not given here. * marks the point of attachment. C20 diacid = O=C(O)CCCCCCCCCCCCCCCCCCC(=O)*; γGlu = O=C(O)[C@H](CCC(=O)[*:2])N[*:1]
# T1: human amylin receptor (amylin 3(a) receptor: human calcitonin receptor plus RAMP-3) (human, UniProt P30988 25-474; O60896 24-148, limits assumed)
# T1 sequence (looked up) 1: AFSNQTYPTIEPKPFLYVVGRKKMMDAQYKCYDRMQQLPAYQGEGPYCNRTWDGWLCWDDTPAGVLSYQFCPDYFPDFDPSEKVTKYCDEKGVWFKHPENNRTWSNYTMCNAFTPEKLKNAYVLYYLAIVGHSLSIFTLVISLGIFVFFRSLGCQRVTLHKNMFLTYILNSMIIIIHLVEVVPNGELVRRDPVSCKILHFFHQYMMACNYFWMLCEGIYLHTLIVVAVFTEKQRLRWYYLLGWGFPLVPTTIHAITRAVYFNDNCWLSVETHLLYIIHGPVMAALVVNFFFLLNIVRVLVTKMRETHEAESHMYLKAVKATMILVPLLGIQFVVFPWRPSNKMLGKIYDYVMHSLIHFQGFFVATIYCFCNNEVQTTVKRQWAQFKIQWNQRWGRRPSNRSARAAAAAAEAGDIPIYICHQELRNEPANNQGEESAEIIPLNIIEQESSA
# T1 sequence (looked up) 2: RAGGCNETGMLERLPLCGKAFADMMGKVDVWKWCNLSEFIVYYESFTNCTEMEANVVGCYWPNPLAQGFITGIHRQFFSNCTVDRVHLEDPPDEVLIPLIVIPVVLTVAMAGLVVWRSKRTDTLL
# T2: human calcitonin receptor (human, UniProt P30988 25-474)
# T2 sequence (looked up): T1 sequence (looked up) 1
# T3: human amylin receptor (amylin 3(a) receptor: human calcitonin receptor co-expressed with RAMP-3) (human, UniProt P30988 25-474; O60896 24-148)
# T3 sequence (looked up) 1: T1 sequence (looked up) 1
# T3 sequence (looked up) 2: T1 sequence (looked up) 2
# T4: human calcitonin receptor (human, UniProt P30988 25-474)
# T4 sequence (looked up): T1 sequence (looked up) 1
# B1: N^α1-[(4S)-4-carboxy-4-(19-carboxynonadecanoylamino)butanoyl]-[Arg17,Pro21,Pro27,Pro34,Glu35]-h-amylin (peptide)
# peptide: {C20 diacid-γGlu}-KCNTATCATQRLANFLRHSSPNFGAIPSSTNVGPETY-NH2
# modifications: disulfide 2-7
# SMILES: CC[C@H](C)[C@H](NC(=O)[C@H](C)NC(=O)CNC(=O)[C@H](Cc1ccccc1)NC(=O)[C@H](CC(N)=O)NC(=O)[C@@H]1CCCN1C(=O)[C@H](CO)NC(=O)[C@H](CO)NC(=O)[C@H](Cc1c[nH]cn1)NC(=O)[C@H](CCCNC(=N)N)NC(=O)[C@H](CC(C)C)NC(=O)[C@H](Cc1ccccc1)NC(=O)[C@H](CC(N)=O)NC(=O)[C@H](C)NC(=O)[C@H](CC(C)C)NC(=O)[C@H](CCCNC(=N)N)NC(=O)[C@H](CCC(N)=O)NC(=O)[C@@H](NC(=O)[C@H](C)NC(=O)[C@@H]1CSSC[C@H](NC(=O)[C@H](CCCCN)NC(=O)CC[C@H](NC(=O)CCCCCCCCCCCCCCCCCCC(=O)O)C(=O)O)C(=O)N[C@@H](CC(N)=O)C(=O)N[C@@H]([C@@H](C)O)C(=O)N[C@@H](C)C(=O)N[C@@H]([C@@H](C)O)C(=O)N1)[C@@H](C)O)C(=O)N1CCC[C@H]1C(=O)N[C@@H](CO)C(=O)N[C@@H](CO)C(=O)N[C@H](C(=O)N[C@@H](CC(N)=O)C(=O)N[C@H](C(=O)NCC(=O)N1CCC[C@H]1C(=O)N[C@@H](CCC(=O)O)C(=O)N[C@H](C(=O)N[C@@H](Cc1ccc(O)cc1)C(N)=O)[C@@H](C)O)C(C)C)[C@@H](C)O
# notes: Synthetic acylated analogue of human amylin; also called compound 29
# B2: N^α1-[(4S)-4-carboxy-4-[[(4S)-4-carboxy-4-(19-carboxynonadecanoylamino)butanoyl]amino]butanoyl]-[Glu14,Arg17,Pro21,Pro27]-h-amylin (peptide)
# peptide: {C20 diacid-γGlu-γGlu}-KCNTATCATQRLAEFLRHSSPNFGAIPSSTNVGSNTY-NH2
# modifications: disulfide 2-7
# SMILES: CC[C@H](C)[C@H](NC(=O)[C@H](C)NC(=O)CNC(=O)[C@H](Cc1ccccc1)NC(=O)[C@H](CC(N)=O)NC(=O)[C@@H]1CCCN1C(=O)[C@H](CO)NC(=O)[C@H](CO)NC(=O)[C@H](Cc1c[nH]cn1)NC(=O)[C@H](CCCNC(=N)N)NC(=O)[C@H](CC(C)C)NC(=O)[C@H](Cc1ccccc1)NC(=O)[C@H](CCC(=O)O)NC(=O)[C@H](C)NC(=O)[C@H](CC(C)C)NC(=O)[C@H](CCCNC(=N)N)NC(=O)[C@H](CCC(N)=O)NC(=O)[C@@H](NC(=O)[C@H](C)NC(=O)[C@@H]1CSSC[C@H](NC(=O)[C@H](CCCCN)NC(=O)CC[C@H](NC(=O)CC[C@H](NC(=O)CCCCCCCCCCCCCCCCCCC(=O)O)C(=O)O)C(=O)O)C(=O)N[C@@H](CC(N)=O)C(=O)N[C@@H]([C@@H](C)O)C(=O)N[C@@H](C)C(=O)N[C@@H]([C@@H](C)O)C(=O)N1)[C@@H](C)O)C(=O)N1CCC[C@H]1C(=O)N[C@@H](CO)C(=O)N[C@@H](CO)C(=O)N[C@H](C(=O)N[C@@H](CC(N)=O)C(=O)N[C@H](C(=O)NCC(=O)N[C@@H](CO)C(=O)N[C@@H](CC(N)=O)C(=O)N[C@H](C(=O)N[C@@H](Cc1ccc(O)cc1)C(N)=O)[C@@H](C)O)C(C)C)[C@@H](C)O
# notes: Synthetic acylated analogue of human amylin; also called compound 15
# B3: N^α1-[(4S)-4-carboxy-4-(19-carboxynonadecanoylamino)butanoyl]-[Glu14,Arg17,Pro21,Pro27,His34]-h-amylin (peptide)
# peptide: {C20 diacid-γGlu}-KCNTATCATQRLAEFLRHSSPNFGAIPSSTNVGHNTY-NH2
# modifications: disulfide 2-7
# SMILES: CC[C@H](C)[C@H](NC(=O)[C@H](C)NC(=O)CNC(=O)[C@H](Cc1ccccc1)NC(=O)[C@H](CC(N)=O)NC(=O)[C@@H]1CCCN1C(=O)[C@H](CO)NC(=O)[C@H](CO)NC(=O)[C@H](Cc1c[nH]cn1)NC(=O)[C@H](CCCNC(=N)N)NC(=O)[C@H](CC(C)C)NC(=O)[C@H](Cc1ccccc1)NC(=O)[C@H](CCC(=O)O)NC(=O)[C@H](C)NC(=O)[C@H](CC(C)C)NC(=O)[C@H](CCCNC(=N)N)NC(=O)[C@H](CCC(N)=O)NC(=O)[C@@H](NC(=O)[C@H](C)NC(=O)[C@@H]1CSSC[C@H](NC(=O)[C@H](CCCCN)NC(=O)CC[C@H](NC(=O)CCCCCCCCCCCCCCCCCCC(=O)O)C(=O)O)C(=O)N[C@@H](CC(N)=O)C(=O)N[C@@H]([C@@H](C)O)C(=O)N[C@@H](C)C(=O)N[C@@H]([C@@H](C)O)C(=O)N1)[C@@H](C)O)C(=O)N1CCC[C@H]1C(=O)N[C@@H](CO)C(=O)N[C@@H](CO)C(=O)N[C@H](C(=O)N[C@@H](CC(N)=O)C(=O)N[C@H](C(=O)NCC(=O)N[C@@H](Cc1c[nH]cn1)C(=O)N[C@@H](CC(N)=O)C(=O)N[C@H](C(=O)N[C@@H](Cc1ccc(O)cc1)C(N)=O)[C@@H](C)O)C(C)C)[C@@H](C)O
# notes: Synthetic acylated analogue of human amylin; also called compound 17
# B4: N^α1-[(4S)-4-carboxy-4-(19-carboxynonadecanoylamino)butanoyl]-[Glu14,Arg17,Pro21,Pro27,Pro34]-h-amylin (peptide)
# peptide: {C20 diacid-γGlu}-KCNTATCATQRLAEFLRHSSPNFGAIPSSTNVGPNTY-NH2
# modifications: disulfide 2-7
# SMILES: CC[C@H](C)[C@H](NC(=O)[C@H](C)NC(=O)CNC(=O)[C@H](Cc1ccccc1)NC(=O)[C@H](CC(N)=O)NC(=O)[C@@H]1CCCN1C(=O)[C@H](CO)NC(=O)[C@H](CO)NC(=O)[C@H](Cc1c[nH]cn1)NC(=O)[C@H](CCCNC(=N)N)NC(=O)[C@H](CC(C)C)NC(=O)[C@H](Cc1ccccc1)NC(=O)[C@H](CCC(=O)O)NC(=O)[C@H](C)NC(=O)[C@H](CC(C)C)NC(=O)[C@H](CCCNC(=N)N)NC(=O)[C@H](CCC(N)=O)NC(=O)[C@@H](NC(=O)[C@H](C)NC(=O)[C@@H]1CSSC[C@H](NC(=O)[C@H](CCCCN)NC(=O)CC[C@H](NC(=O)CCCCCCCCCCCCCCCCCCC(=O)O)C(=O)O)C(=O)N[C@@H](CC(N)=O)C(=O)N[C@@H]([C@@H](C)O)C(=O)N[C@@H](C)C(=O)N[C@@H]([C@@H](C)O)C(=O)N1)[C@@H](C)O)C(=O)N1CCC[C@H]1C(=O)N[C@@H](CO)C(=O)N[C@@H](CO)C(=O)N[C@H](C(=O)N[C@@H](CC(N)=O)C(=O)N[C@H](C(=O)NCC(=O)N1CCC[C@H]1C(=O)N[C@@H](CC(N)=O)C(=O)N[C@H](C(=O)N[C@@H](Cc1ccc(O)cc1)C(N)=O)[C@@H](C)O)C(C)C)[C@@H](C)O
# notes: Synthetic acylated analogue of human amylin; also called compound 32
# B5: N^ε1-[(4S)-4-carboxy-4-[[(4S)-4-carboxy-4-(19-carboxynonadecanoylamino)butanoyl]amino]butanoyl]-[Glu14,Arg17,Pro21,Pro27,Pro34,Glu35,Pro37]-h-amylin (peptide)
# peptide: K([γGlu-γGlu-C20 diacid])CNTATCATQRLAEFLRHSSPNFGAIPSSTNVGPETP-NH2
# modifications: disulfide 2-7 (inferred)
# notes: Synthetic acylated analogue of human amylin
# B6: N^ε1-[(4S)-4-carboxy-4-(19-carboxynonadecanoylamino)butanoyl]-[Glu14,Arg17,Pro21,Pro27,His35]-h-amylin (peptide)
# peptide: K([γGlu-C20 diacid])CNTATCATQRLAEFLRHSSPNFGAIPSSTNVGSHTY-NH2
# modifications: disulfide 2-7 (inferred)
# notes: as for B5
# Biological target: T1, human amylin receptor (amylin 3(a) …)
# Test: cell-based or functional assay
Binder,Ratio hCT/hAmylin funct. [ratio],hAmylin-R funct. EC50 [pM]
B1,8.7,99
B2,8.9,386
B3,8.8,268
B4,6.6,50

# Biological target: T2, human calcitonin receptor
# Test: cell-based or functional assay
row,Binder,hCTR funct. EC50 [pM]
1,B1,857
2,B2,3430
3,B3,2350
4,B4,327

# Biological target: T3, human amylin receptor (amylin 3(a) …)
# Test: cell-based or functional assay
row,Binder,"hAmylin-R funct. EC50 (pM), CRE-luciferase reporter in BHK amylin 3(a) receptor cells [pM]"
1,B5,132
2,B6,425

# Biological target: T4, human calcitonin receptor
# Test: cell-based or functional assay
Binder,Ratio hCT/hAmylin funct. (hCTR EC50 against hAmylin-R EC50),"hCTR funct. EC50 (pM), CRE-luciferase reporter in BHK calcitonin (a) receptor cells [pM]"
B5,0.8,102
B6,13.1,5580

# Biological target: T3, human amylin receptor (amylin 3(a) …)
# Test: SPA competition binding, membranes of Amylin 3(a)/CRE-luc BHK cells, displacement of 125I-rat amylin (Assay V)
# In short: (§1)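 One-site competition analysis of SPA counts yielded IC₅₀ as a measure of affinity. Membranes were at 35 ng/μL final; incubation was 120 min at 25° C, pH 7.4.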
row,Binder,IC50 [nM]
1,B5,0.533
2,B6,0.992

# Biological target: T1, human amylin receptor (amylin 3(a) …)
# Test: SPA competition binding, displacement of 125I-rat amylin from membranes of BHK cells with human calcitonin receptor + RAMP-3 (Assay V)
# In short: as §1
row,Binder,IC50 [nM]
1,B1,0.577
2,B2,0.597
3,B3,0.878
4,B4,0.1
